B1: VRT-2 (Fc fusion)
chain: VTSVWTKGVTPPAKFTQGEDVFHAPYVANQGWYDITKTFNGKDDLLCGAATAGNMLHWWFDQNKEKIEAYLKKHPDKQKIMFGDQELLDVRKVINTKGDQTNSELFNYFRDKAFPGLSARRIGVMPDLVLDMFINGYYLNVYKTQTTDVNRTYQEKDRRGGIFDAVFTRGDQSKLLTSRHDFKEKNLKEISDLIKKELTEGKALGLSHTYANVRINHVINLWGADFDSNGNLKAIYVTDSDSNASIGMKKYFVGVNSAGKVAISAKEIKEDNIGAQVLGLFTLSTGQDSWNQTNDKTHTCPPCPAPEAAGAPSVFLFPPKPKDTLMISRTPEVTCVVVDVSHEDPEVKFNWYVDGVEVHNAKTKPREEQQNSTYRVVSVLTVLHQDWLNGKEYKCKVSNKALKAPIEKTISKAKGQPREPQVYTLPPSRDELTKNQVSLTCLVKGFYPSDIAVEWESNGQPENNYKTTPPVLDSDGSFFLYSKLTVDKSRWQQGNVFSCSVMHEALHNHYTQKSLSLSPG
B2: VRT-5 (Fc fusion)
chain: VTSVWTKGVTPPANFTQGEDVFHAPYKANQGWYDITKTFNGKDDLLCGAATAGNMLHWWFDQNKDQIEAYLKEHPEKQKINFNGEQMFDVKEAIDTKDDQTNSKLFEYFKEKAFPYLSTKHLGVFPDHVLDMFINGYRLSLTNHGPTPVKEGSKDPRGGIFDAVFTRGDQSKLLTSRHDFKEKTLKEISDLIKQELTEGKALALSHTYANVRINHVINLWGADFDSNGNLEAIYVTDSDSNASIGMKKYFVGVNSAGKVAISAKEIEDDNIGAQVLGLFTLSTGQDIWNQTNDKTHTCPPCPAPEAAGAPSVFLFPPKPKDTLMISRTPEVTCVVVDVSHEDPEVKFNWYVDGVEVHNAKTKPREEQQNSTYRVVSVLTVLHQDWLNGKEYKCKVSNKALKAPIEKTISKAKGQPREPQVYTLPPSRDELTKNQVSLTCLVKGFYPSDIAVEWESNGQPENNYKTTPPVLDSDGSFFLYSKLTVDKSRWQQGNVFSCSVMHEALHNHYTQKSLSLSPG
B3: VRT-7 (Fc fusion)
chain: VTSVWTKGVTPPTNFTYGEDVLHAPYVANQGWYDITKTFNGKDDLLCGAATAGNMLHWWFDQNKEQIENYLKKHPEKQKINFNGEQMFDVKEAIDTKDSQLDSKLFEYFKEKAFPYLSTKHLGVFPDHVIDMFINGYRLSLTNHGPTPVKRGSKDPRGGIFDAVFTRGDQSKLLTNRHDFKEKTLKEISDLIKQELTEGKALGISHTYANVRINHVINLWGADFDAEGNLEAIYVTDSDSNASIGMKKYFVGVNSNGKVAISAKEIEEDNIGAQVLGLFTLSTGQDIWNQTNDKTHTCPPCPAPEAAGAPSVFLFPPKPKDTLMISRTPEVTCVVVDVSHEDPEVKFNWYVDGVEVHNAKTKPREEQQNSTYRVVSVLTVLHQDWLNGKEYKCKVSNKALKAPIEKTISKAKGQPREPQVYTLPPSRDELTKNQVSLTCLVKGFYPSDIAVEWESNGQPENNYKTTPPVLDSDGSFFLYSKLTVDKSRWQQGNVFSCSVMHEALHNHYTQKSLSLSPG
B4: VRT-10 (Fc fusion)
chain: TITSVWTKGVTPPTPEDFRYNNEDVLHAPYVANQGWYDITKTFDGKDNLLCGAATAGNMLHWWFDQNKEEIERYLKKHPEKQKIIFNNQELFDVKAAIDTKDSQTNSKLFNYFRDKAFPNLSARQLGVMPDLVLDMFINGYYLNLGKTQSTDVNRPYQDKDKRGGIFDAVFTRGDQTTLLTARHDLKNKGLNEISDLIKQELTEGKALALSHTYANVRINHVINLWGADFDAEGNLIAIYVTDSDANASIGMKKYFVGVNANGKVAISAKKIEGDNIGAQVLGLFTLSTGQDIWQKLSDKTHTCPPCPAPEAAGAPSVFLFPPKPKDTLMISRTPEVTCVVVDVSHEDPEVKFNWYVDGVEVHNAKTKPREEQQNSTYRVVSVLTVLHQDWLNGKEYKCKVSNKALKAPIEKTISKAKGQPREPQVYTLPPSRDELTKNQVSLTCLVKGFYPSDIAVEWESNGQPENNYKTTPPVLDSDGSFFLYSKLTVDKSRWQQGNVFSCSVMHEALHNHYTQKSLSLSPG
B5: VRT-3 (Fc fusion)
chain: QITSVWTKGVTPLTPEQFRYNNEDVIHAPYLAHQGWYDITKAFDGKDNLLCGAATAGNMLHWWFDQNKTEIEAYLSKHPEKQKIIFNNQELFDLKAAIDTKDSQTNSQLFNYFRDKAFPNLSARQLGVMPDLVLDMFINGYYLNVFKTQSTDVNRPYQDKDKRGGIFDAVFTRGDQTTLLTARHDLKNKGLNDISTIIKQELTEGRALALSHTYANVSISHVINLWGADFNAEGNLEAIYVTDSDANASIGMKKYFVGINAHGHVAISAKKIEGENIGAQVLGLFTLSSGKDIWQKLSDKTHTCPPCPAPEAAGAPSVFLFPPKPKDTLMISRTPEVTCVVVDVSHEDPEVKFNWYVDGVEVHNAKTKPREEQQNSTYRVVSVLTVLHQDWLNGKEYKCKVSNKALKAPIEKTISKAKGQPREPQVYTLPPSRDELTKNQVSLTCLVKGFYPSDIAVEWESNGQPENNYKTTPPVLDSDGSFFLYSKLTVDKSRWQQGNVFSCSVMHEALHNHYTQKSLSLSPG
B6: VRT-11 (Fc fusion)
chain: B5 chain with L13P, H33N, A42T, D44N, G190T, I197L, R206K, I259V, H264K
B7: VRT-1 (Fc fusion)
chain: VTSVWTKGVTPPANFTQGEDVFHAPYVANQGWYDITKTFNGKDDLLCGAATAGNMLHWWFDQNKDQIKRYLEEHPEKQKINFNGEQMFDVKEAIDTKNHQLDSKLFEYFKEKAFPYLSTKHLGVFPDHVIDMFINGYRLSLTNHGPTPVKEGSKDPRGGIFDAVFTRGDQSKLLTSRHDFKEKNLKEISDLIKKELTEGKALGLSHTYANVRINHVINLWGADFDSNGNLKAIYVTDSDSNASIGMKKYFVGVNSAGKVAISAKEIKEDNIGAQVLGLFTLSTGQDSWNQTNDKTHTCPPCPAPEAAGAPSVFLFPPKPKDTLMISRTPEVTCVVVDVSHEDPEVKFNWYVDGVEVHNAKTKPREEQQNSTYRVVSVLTVLHQDWLNGKEYKCKVSNKALKAPIEKTISKAKGQPREPQVYTLPPSRDELTKNQVSLTCLVKGFYPSDIAVEWESNGQPENNYKTTPPVLDSDGSFFLYSKLTVDKSRWQQGNVFSCSVMHEALHNHYTQKSLSLSPG
B8: VRT-6 (Fc fusion)
chain: B2 chain with K27V, A69R, D99S, N102D, A203G, N227E, E231K, E267K, D268E
B9: VRT-8 (Fc fusion)
chain: VTSVWTKGVTPPADFTQGEDVFHAPYVANQGWYDITKTFNGKDDLLCGAATAGNMLHWWFDQNKEYIEAYLKKHPEKQKIMFGDQELLDVRKAINTKGSQKNSELFNYFRDKAFPNLSARRLGVMPDLVLDMFINGYYLNVTKTQTTDVNRTYQEKDKRGGIFDAVFTRGDQSKLLTSRHDFKEKGLKEISDLIKQELTEGKALGLSHTYANVRINHVINLWGADFDSDGNLKAIYVTDSDSNASIGMKKYFVGVNSAGKVAISAKEIKEDNIGAQVLGLFTLSTGQDIWNQTNDKTHTCPPCPAPEAAGAPSVFLFPPKPKDTLMISRTPEVTCVVVDVSHEDPEVKFNWYVDGVEVHNAKTKPREEQQNSTYRVVSVLTVLHQDWLNGKEYKCKVSNKALKAPIEKTISKAKGQPREPQVYTLPPSRDELTKNQVSLTCLVKGFYPSDIAVEWESNGQPENNYKTTPPVLDSDGSFFLYSKLTVDKSRWQQGNVFSCSVMHEALHNHYTQKSLSLSPG
B10: VRT-4 (Fc fusion)
chain: SQTEDSESLQRLRDIEDFQAEKKMQNVVYTKWLDGVDVKDHDFRKIVDGNIAYYATPLLNGRGFYDINKDFNRDSDKCAAAVAANMFHYWLDINRDNVDRFLRQNPEKHGIIELPDGQLKLSDFLNTYESDHGYRDKSKLFDFISNNFNGPVWTDKLLDNYINGYAYNYKYGRTIEDPTKNTSKINFFKEVFNEKILTNNHSIRNQNEFSVLLSEALYTGKAIGLSYGPAGLRHSLGHIISVWGADLDADGNVVAIYVTDSDDKKLTIGDERVGLKRYKISTDDENRLRLTAYEETHNTGGQIRGLWTLDTGKYAWADYFDKTEQTGTDQAEQDKTHTCPPCPAPEAAGAPSVFLFPPKPKDTLMISRTPEVTCVVVDVSHEDPEVKFNWYVDGVEVHNAKTKPREEQQNSTYRVVSVLTVLHQDWLNGKEYKCKVSNKALKAPIEKTISKAKGQPREPQVYTLPPSRDELTKNQVSLTCLVKGFYPSDIAVEWESNGQPENNYKTTPPVLDSDGSFFLYSKLTVDKSRWQQGNVFSCSVMHEALHNHYTQKSLSLSPG

Residue numbers refer to the chain shown, from its start.

For the assay, the target named is pooled human IgG (human). Nature of the assay: cell-based or functional assay.
Take B1: the Enzyme Activity Endpoint Assay: Fab′2 was found to be 97 ng/µL, the Enzyme Activity Endpoint Assay: Fc stood at 238 ng/µL, the Enzyme Activity Endpoint Assay: IgG came to 247 ng/µL and the Enzyme Activity Endpoint Assay: scIgG stood at 100 ng/µL.
B2: the Enzyme Activity Endpoint Assay: Fab′2 was 137 ng/µL, the Enzyme Activity Endpoint Assay: Fc was determined as 294 ng/µL, the Enzyme Activity Endpoint Assay: IgG came out at 89 ng/µL and the Enzyme Activity Endpoint Assay: scIgG stood at 151 ng/µL.
Regarding B3, the Enzyme Activity Endpoint Assay: Fab′2 is 61 ng/µL, the Enzyme Activity Endpoint Assay: Fc worked out at 258 ng/µL, the Enzyme Activity Endpoint Assay: IgG came to 178 ng/µL and the Enzyme Activity Endpoint Assay: scIgG is 249 ng/µL.
As to B4, the Enzyme Activity Endpoint Assay: Fab′2 was determined as 56 ng/µL, the Enzyme Activity Endpoint Assay: Fc came to 266 ng/µL, the Enzyme Activity Endpoint Assay: IgG came out at 71 ng/µL and the Enzyme Activity Endpoint Assay: scIgG came to 169 ng/µL.
Consider B5, for which the Enzyme Activity Endpoint Assay: Fab′2 stood at 0 ng/µL, the Enzyme Activity Endpoint Assay: Fc came out at 99 ng/µL, the Enzyme Activity Endpoint Assay: IgG came to 808 ng/µL and the Enzyme Activity Endpoint Assay: scIgG was determined as 50 ng/µL.
The molecule B6 registered an Enzyme Activity Endpoint Assay: Fab′2 of 0 ng/µL, an Enzyme Activity Endpoint Assay: Fc of 90 ng/µL, an Enzyme Activity Endpoint Assay: IgG of 829 ng/µL and an Enzyme Activity Endpoint Assay: scIgG of 38 ng/µL.
Molecule B7 displayed an Enzyme Activity Endpoint Assay: Fab′2 of 175 ng/µL, an Enzyme Activity Endpoint Assay: Fc of 334 ng/µL, an Enzyme Activity Endpoint Assay: IgG of 197 ng/µL and an Enzyme Activity Endpoint Assay: scIgG of 137 ng/µL.
In the case of B8, the Enzyme Activity Endpoint Assay: Fab′2 turned out to be 132 ng/µL, the Enzyme Activity Endpoint Assay: Fc came to 304 ng/µL, the Enzyme Activity Endpoint Assay: IgG was 78 ng/µL and the Enzyme Activity Endpoint Assay: scIgG was 172 ng/µL.
The molecule B9 had an Enzyme Activity Endpoint Assay: Fab′2 of 0 ng/µL, an Enzyme Activity Endpoint Assay: Fc of 126 ng/µL, an Enzyme Activity Endpoint Assay: IgG of 652 ng/µL and an Enzyme Activity Endpoint Assay: scIgG of 125 ng/µL.
With B10, the Enzyme Activity Endpoint Assay: Fab′2 was 0 ng/µL, the Enzyme Activity Endpoint Assay: Fc came to 29 ng/µL, the Enzyme Activity Endpoint Assay: IgG was determined as 990 ng/µL and the Enzyme Activity Endpoint Assay: scIgG was determined as 24 ng/µL.

The values above are taken from US20250027068A1.
